According to patent US20140274782A1 (Stanford University, published 2014):

Tests used:
Assay in all cases: ProtoArray, GST-treated control array;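 also: human protein microarray (about 9500 recombinant proteins) incubated overnight with GST alone plus SAM cofactor as the negative control for G9a SET domain methylation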
[1] = target: T1, CUTC-cutC copper transporter homolog (E. coli) (CUTC) (human, UniProt Q9NTM9 1-273)
T1 sequence (looked up): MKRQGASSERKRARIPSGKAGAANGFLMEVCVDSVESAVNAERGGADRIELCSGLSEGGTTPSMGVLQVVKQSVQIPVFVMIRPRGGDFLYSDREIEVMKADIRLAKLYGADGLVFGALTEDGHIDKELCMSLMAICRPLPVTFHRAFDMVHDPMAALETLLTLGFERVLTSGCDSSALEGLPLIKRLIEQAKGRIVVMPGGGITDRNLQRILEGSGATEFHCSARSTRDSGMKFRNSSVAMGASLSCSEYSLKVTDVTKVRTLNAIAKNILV

[2] = target: T2, LYPLAL1-lysophospholipase-like 1 (LYPLAL1) (human, UniProt Q5VWZ2 1-237)
T2 sequence (looked up): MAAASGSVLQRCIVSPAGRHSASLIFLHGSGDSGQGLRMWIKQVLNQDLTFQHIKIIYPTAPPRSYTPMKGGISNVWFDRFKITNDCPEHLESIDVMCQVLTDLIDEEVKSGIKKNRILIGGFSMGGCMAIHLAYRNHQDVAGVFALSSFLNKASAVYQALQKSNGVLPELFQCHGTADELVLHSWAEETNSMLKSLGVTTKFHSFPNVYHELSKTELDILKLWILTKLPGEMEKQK

[3] = target: SAR1B-SAR1 gene homolog B (S. cerevisiae) (SAR1B), transcript variant 2 (human, UniProt Q9Y6B6 1-198)
Chain of SAR1B-SAR1 gene homolog B (S. cerevisiae) (SAR1B), transcript variant 2 (Q9Y6B6 whole entry, change not shown): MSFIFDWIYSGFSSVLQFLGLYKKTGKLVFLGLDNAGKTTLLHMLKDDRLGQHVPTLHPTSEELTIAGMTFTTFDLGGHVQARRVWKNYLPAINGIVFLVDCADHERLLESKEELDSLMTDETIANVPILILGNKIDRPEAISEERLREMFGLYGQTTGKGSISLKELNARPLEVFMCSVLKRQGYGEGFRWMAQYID

[4] = target: T3, SCGB1A1-secretoglobin, family 1A, member 1 (uteroglobin) (SCGB1A1) (human, UniProt P11684 22-91, limits assumed)
T3 sequence (looked up): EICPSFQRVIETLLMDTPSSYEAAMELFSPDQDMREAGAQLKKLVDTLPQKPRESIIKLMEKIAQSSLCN

[5] = target: T4, KIFC1-kinesin family member C1 (KIFC1) (human, UniProt Q9BW19 1-673)
T4 sequence (looked up): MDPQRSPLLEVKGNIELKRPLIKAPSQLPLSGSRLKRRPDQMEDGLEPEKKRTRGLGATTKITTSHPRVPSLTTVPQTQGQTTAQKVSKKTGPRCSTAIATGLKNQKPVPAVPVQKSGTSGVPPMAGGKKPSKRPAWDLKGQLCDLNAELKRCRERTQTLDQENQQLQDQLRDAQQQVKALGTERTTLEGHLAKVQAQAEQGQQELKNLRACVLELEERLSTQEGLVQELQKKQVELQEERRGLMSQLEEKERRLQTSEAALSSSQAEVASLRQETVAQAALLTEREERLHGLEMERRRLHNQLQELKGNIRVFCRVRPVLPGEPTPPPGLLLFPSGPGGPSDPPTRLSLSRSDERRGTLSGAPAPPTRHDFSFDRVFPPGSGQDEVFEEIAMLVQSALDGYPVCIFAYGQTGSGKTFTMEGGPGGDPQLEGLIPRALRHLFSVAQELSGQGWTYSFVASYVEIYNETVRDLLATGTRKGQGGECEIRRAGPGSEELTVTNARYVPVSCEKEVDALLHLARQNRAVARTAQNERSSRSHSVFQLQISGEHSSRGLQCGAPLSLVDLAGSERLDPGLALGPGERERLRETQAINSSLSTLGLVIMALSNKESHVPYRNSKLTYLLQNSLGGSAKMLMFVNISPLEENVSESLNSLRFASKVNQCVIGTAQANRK

[6] = target: T5, C10orf58-chromosome 10 open reading frame 58 (C10orf58) (human, UniProt Q9BRX8 1-229, limits assumed)
T5 sequence (looked up): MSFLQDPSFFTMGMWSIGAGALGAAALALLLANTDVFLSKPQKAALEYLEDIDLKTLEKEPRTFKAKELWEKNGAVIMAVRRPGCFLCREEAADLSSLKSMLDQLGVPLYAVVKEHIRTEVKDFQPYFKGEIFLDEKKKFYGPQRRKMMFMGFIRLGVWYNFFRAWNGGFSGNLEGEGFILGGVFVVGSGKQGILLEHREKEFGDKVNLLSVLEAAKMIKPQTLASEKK

[7] = target: FTH1-ferritin, heavy polypeptide 1 (FTH1) (human, UniProt P02794 1-183)
Chain of FTH1-ferritin, heavy polypeptide 1 (FTH1) (P02794 whole entry): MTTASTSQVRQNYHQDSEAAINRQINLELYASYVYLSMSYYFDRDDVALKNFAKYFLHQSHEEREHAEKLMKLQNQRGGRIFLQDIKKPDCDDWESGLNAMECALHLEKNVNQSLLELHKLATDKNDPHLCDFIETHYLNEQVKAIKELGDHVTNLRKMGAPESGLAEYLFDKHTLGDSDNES

[8] = target: T6, RAB33B-RAB33B, member RAS oncogene family (RAB33B) (human, UniProt Q9H082 1-229)
T6 sequence (looked up): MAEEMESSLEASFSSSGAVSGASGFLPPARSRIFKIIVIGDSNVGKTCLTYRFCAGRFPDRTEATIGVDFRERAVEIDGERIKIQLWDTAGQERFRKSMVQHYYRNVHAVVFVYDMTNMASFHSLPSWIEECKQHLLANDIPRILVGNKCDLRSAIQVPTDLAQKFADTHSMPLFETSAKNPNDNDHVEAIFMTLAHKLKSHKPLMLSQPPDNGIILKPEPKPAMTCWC

[9] = target: T7, C12orf62-chromosome 12 open reading frame 62 (C12orf62) (human, UniProt Q96I36 1-57)
T7 sequence (looked up): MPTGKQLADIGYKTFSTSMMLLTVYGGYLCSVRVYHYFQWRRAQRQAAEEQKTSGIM

[10] = target: TTC27-Tetratricopeptide repeat protein 27 (human, UniProt Q6P3X3 1-843)
[11] = target: T8, CSF3-Granulocyte colony-stimulating factor (human, UniProt P09919 31-207, limits assumed)
T8 sequence (looked up): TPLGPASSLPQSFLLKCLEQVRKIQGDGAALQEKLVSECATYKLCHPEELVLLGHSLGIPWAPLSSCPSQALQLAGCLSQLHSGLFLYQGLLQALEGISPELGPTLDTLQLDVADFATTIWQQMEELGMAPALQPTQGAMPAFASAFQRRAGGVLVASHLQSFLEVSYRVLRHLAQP

B1: 3× Flag-3×MBT (designed binder)
chain: EEWSSSQPATGEKKECWSWESYLEEQKAITAPVSLFQDSQAVTHNKNGFKLGMKLEGIDPQHPSMYFILTVAEVCGYRLRLHFDGYSECHDFWVNANSPDIHPAGWFEKTGHKLQPPKGYKEEEFSWSQYLRSTRAQAAPKHLFVSQSHSPPPLGFQVGMKLEAVDRMNPSLVCVASVTDVVDSRFLVHFDNWDDTYDYWCDPSSPYIHPVGWCQKQGKPLTPPQDYPDPDNFCWEKYLEETGASAVPTWAFKVRPPHSFLVNMKLEAVDRRNPALIRVASVEDVEDHRIKIHFDGWSHGYDFWIDADHPDIHPAGWCSKTGHPLQPPLGPREPSSASPGG
notes: also called Flag-tagged 3×MBT; 3xFlag-3xMBT; not shown: made by PreScission cleavage of GST-3× Flag-3×MBT
GST Average SNR [1]: 0.667
GST Average SNR [2]: 0.066
GST Average SNR [3]: 0.558
GST Average SNR [4]: 1.16
GST Average SNR [5]: 0.745
GST Average SNR [6]: 0.966
GST Average SNR [7]: -0.802
GST Average SNR [8]: 0.0035
GST Average SNR [9]: 0.575
GST Average SNR [10]: 0.496
GST Average SNR [11]: 1.27
